Experimental data from publication PMC4575469.

These sequences were tested on TetR (assay: SPR). Settings: streptavidin surface, promoters at 30-50 RU, TetR 4-62 nM, regeneration with 1 M NaCl and 1 M MgCl2, running buffer, pH and temperature not given in the ….

Sequence	Kd [nM]
CGCGCGCCTTTCTGCGTTTATATACTAGAGTCCCTATCAGTGATAGAGATTGACATCCCTATCAGTGATAGATATAATGAGCACTACTAGAGTAGTGGAGGTTACTAGATGGTGAGCAAGGGCGAGGAGCTGTTCACCGGGGTGGTGCCCATCCTGCGCG (double strand) [L12 promoter]	8
CGCGCGCCTTTCTGCGTTTATATACTAGAGTCCCTATCAGTGATAGAGATTGACATCCCTATCAGTGATAGATATAATGCGCACTACTAGAGTAGTGGAGGTTACTAGATGGTGAGCAAGGGCGAGGAGCTGTTCACCGGGGTGGTGCCCATCCTGCGCG (double strand) [L09 promoter]	6
CGCGCGCCTTTCTGCGTTTATATACTAGAGTCCCTATCAGTGATAGAGATTGACATCCCTATCAGTGATAGATATAATGGGCACTACTAGAGTAGTGGAGGTTACTAGATGGTGAGCAAGGGCGAGGAGCTGTTCACCGGGGTGGTGCCCATCCTGCGCG (double strand) [L11 promoter]	6
CGCGCGCCTTTCTGCGTTTATATACTAGAGTCCCTATCAGTGATAGAGATTGACATCCCTATCAGTGATAGATATAATGTGCACTACTAGAGTAGTGGAGGTTACTAGATGGTGAGCAAGGGCGAGGAGCTGTTCACCGGGGTGGTGCCCATCCTGCGCG (double strand) [L10 promoter]	5
